Tests used:
Assay type in all cases: biochemical
[1] = Effect of pH on 6-O-sulfatase activity by capillary electrophoresis
Procedure: Initial assessment of substrate specificity and pH optima was made using a capillary electrophoresis-based assay for the detection of desulfated products. Preliminary enzyme activity was measured against the following series of fluorescently derivatized, monosulfated gluco and galactopyranosides: 4-MU-GlcNAc,6S, 4-MU-GlcNS, 4-MU-GalNAc,6S and 4-MU-Gal6S. Standard reactions included 1 mM substrate, 1-10 μM enzyme, 50 mM sodium acetate, pH 5.5-6.5 and 5 mM CaCl2 in a 20 μL reaction volume. For pilot experiments, exhaustive reactions involved overnight incubations at 30° C. Enzyme was inactivated by heat denaturation at 95° C. for 10 minutes, followed by a 10-fold dilution into water. Reaction products were resolved by capillary electrophoresis using a 25 cm long, 75 μm (i.d.) fused silica capillary (Agilent Technologies, Palo Alto, Calif.). […] Substrate desulfation was measured as a percentage of substrate depletion relative to a minus enzyme control as monitored by the loss of UV absorbance at 315 nm detected at approximately 4 minutes. […]
The effect of pH was likewise measured by capillary electrophoresis using the following three sets of buffers with overlapping pH ranging from 4.5 to 8.0:50 mM sodium citrate at 4.5, 5.0, and 5.5; 50 mM MES at 5.5, 6.0, 6.5 and 7.0; and 50 mM MOPS at 6.5, 7.0, 7.5, and 8.0. […]

[2] = Coupled N-sulfamidase/α-glucosidase fluorimetric plate assay (reaction conditions, steady-state kinetics)
Description: Indirect measurement of enzyme activity was also made using a fluorimetrically-based plate assay in which the prerequisite desulfation of the appropriate glucopyranoside 1→4 methlybelliferone substrate by either the 6-O-sulfatase or N-sulfamidase was coupled to the glucosidase-mediated hydrolysis of the stereo-specific 1→4 glycosidic linkage between the pyranose ring and the adjoining fluorophore. Release of the free fluorophore (4-MU) was monitored spectroscopically as described above for the arylsulfatase assay using 4-MU sulfate. The two sulfatase assays differed in the choice of substrate in accordance to their specificity as well as the glucosidase added during the second, […] step. For the 6-O-sulfatase, the hydrolysis of the substrate 4-MU-β-D-GlcNAc,6S at the 6-OH position was coupled to β-glucosidase purified from sweet almonds (MP Biomedicals, Solon, Ohio, Catalog No. 195197). Likewise, N-sulfamidase hydrolysis of 4-MU-α-D-GlcNS at the 2-amino position was coupled to α-glucosidase (MP Biomedicals, Catalog No. 153487). […] The presumption of the first (sulfatase) activity being the rate-limiting step was established experimentally. Reaction conditions were optimized to satisfy three related criteria: 1) linear readout of fluorescent signal which is directly proportional to sulfatase activity; 2) quantitative release of 4-MU by glucosidase activity under every biochemical condition examined and; 3) negligible fluorescent quenching of the free chromophore.
Coupled N-sulfamidase assay was generally described for the 6-O-sulfatase, but with the following modifications: 4-MU-GlcNS as substrate, 50 mM sodium acetate at pH 6.0 (instead of 5.5) and 1 μM enzyme. For the second enzyme step, 5 units of α-glucosidase were added. Enzyme incubation was carried out for 22 hours at 37° C. The obvious difference in enzyme efficacies between α-glucosidase versus β-glucosidase is reflected in the substantially longer incubation times required for the α-glucosidase to quantitatively hydrolyze the glycosidic α1→4 linkage between the fluorophore and the desulfated glucosamine. […]

[3] = Effect of pH on N-sulfamidase activity by capillary electrophoresis
Procedure: Initial assessment of substrate specificity and pH optima was made using a capillary electrophoresis-based assay for the detection of desulfated products. Preliminary enzyme activity was measured against the following series of fluorescently derivatized, monosulfated gluco and galactopyranosides: 4-MU-GlcNAc,6S, 4-MU-GlcNS, 4-MU-GalNAc,6S and 4-MU-Gal6S. Standard reactions included 1 mM substrate, 1-10 μM enzyme, 50 mM sodium acetate, pH 5.5-6.5 and 5 mM CaCl2 in a 20 μL reaction volume. For pilot experiments, exhaustive reactions involved overnight incubations at 30° C. Enzyme was inactivated by heat denaturation at 95° C. for 10 minutes, followed by a 10-fold dilution into water. Reaction products were resolved by capillary electrophoresis using a 25 cm long, 75 μm (i.d.) fused silica capillary (Agilent Technologies, Palo Alto, Calif.). Electrophoresis was carried out under negative polarity by applying a voltage of −15 kV (˜1.2 W) for 10 minutes. Substrate desulfation was measured as a percentage of substrate depletion relative to a minus enzyme control as monitored by the loss of UV absorbance at 315 nm detected at approximately 4 minutes. A standard capillary electrophoresis buffer included 50 mM Tris and 10 μM dextran sulfate (average MW of 10,000 Da) adjusted to pH 2.0 with phosphoric acid. At this pH, saccharide migration occurred on the basis of charge without the influence of electro-osmotic flow.
The effect of pH was likewise measured by capillary electrophoresis using the following three sets of buffers with overlapping pH ranging from 4.5 to 8.0:50 mM sodium citrate at 4.5, 5.0, and 5.5; 50 mM MES at 5.5, 6.0, 6.5 and 7.0; and 50 mM MOPS at 6.5, 7.0, 7.5, and 8.0. Reactions included 1 μM enzyme, 2 mM 4-MU-GlcNAc,6S (for 6-O-sulfatase) or 4-MU-GlcNS (for N-sulfamidase), 50 mM buffer and 5 mM CaCl2 in a 20 μL reaction volume. Assay was initiated by the addition of 2 μl of a 10× enzyme stock to 18 μL of preheated reaction mixture. […]

Row | Molecule | activity below pH 4.5 ([1]; below pH 4.5) | activity in acetate buffer compared to sulfonate buffers (MES, MOPS) ([1]; same pH range) | calcium requirement for activity [2] | effect of Mg^+2 or Mn^+2 on activity ([2]; 1 mM or 5 mM divalent metal) | activity remaining relative to the zero NaCl control ([2]; 1 M NaCl) | activity below pH 4.5 ([3]; below pH 4.5) | pH range of activity compared with the other enzyme ([3]; compared with 6-O-sulfatase) | activity in acetate buffer compared to sulfonate buffers (MES, MOPS) ([3]; same pH range)
1 | Flavobacterium heparinum 6-O-sulfatase (ORF B), recombinant, NH2-terminal truncation lacking signal sequence, SEQ ID NO: 2 (Pedobacter heparinus DSM 2366) (protein, E. coli BL21(DE3), N-terminal 6xHis removed by thrombin) TLMSCQQPKPAESAKRPNIVFIMTDDHTIQAISAYGSKLVKTPNLDRIANEGMLFNNCFVTNAVCGPSRATILTGKYSHLNGLTDNSKVFDSTQVIYPQLLKKAGYQTAMIGKWHLGSTPMGFDYYSILPNQGQYYQPEFIENGHLVKEKGYVTDLITDKAIGFLEKRDHDKPFLMIYQHKAPHRNWLPAPRHLGMFDDTVFPEPANLLDDFKGRGRAAKEQLMNISTDMWPAWDLKMLSTAQLDSMAKLPVSPKFKDAKGDDYQQANDPSLDKARFFEVYNRMTDAEKVQWRKVYDKRVAEFKRLNPKGADLVRWKYQQYMRDYLACVVSVDENVGRLMDYLKKIGELDNTIIVYTSDQGFYLGEHGYFDKRFMYDESFRTPLMVRYPPSVKAGSVSNAFAMNLDFAPTLLDYAGVKIPADMQGLSLRPVLDNAGKSPENWRKAVYYHYYEFPSWHMVKRHYGIRTERYKLIHFYNDIDEWELYDMQKDPHEMQNLYNDKAYEPIIKDLKVQMKKLQVQYKDTNPTEAL | Neither enzyme was active | higher activity in acetate buffer |  |  |  |  |  | 
2 | Flavobacterium heparinum N-sulfamidase (ORF C), recombinant, NH2-terminal truncation lacking signal sequence, SEQ ID NO: 4 (Pedobacter heparinus DSM 2366) (protein, E. coli BL21(DE3), N-terminal 6xHis removed by thrombin) SCTSPEKKTDRPNILMIMSDNQSWNHVGSYGDQTVRTPNMDRIAKEGVRFTNAFCSSPSCTPARAGMLTGQDIWRLEDGGNLWGVLPVKYKVYPDLLEEAGYAIGFQGKGWGPGSFEANKRPRNPAGNEFKSFGAFLKDKKEGPWCYWISSHEPHRPYVEGSGEKAGIDPNKVKVPAYLPDHISIRKDIADYYAAVETFDRELGEALDQLKASGELDNTVIVVCSDNGWQMPRGLANLYDFGTHVPLIISWPGKFKQDVVADNLVTLNDLAPTFLQLGKVPVPADMTGKSLLPIVEAGKKDEKPRDYVVLGRERHAFVRRHGLGYPGRAIRTKDYLYIKNYEPNRWPAGDPPFYGDIDPYMFNWPGETKYYLIEHKDDPKVKSFFELGMGKRPAEELFDINKDPDELHNLAALPEYQKIKQELVAKLRNYLVATKDPRETNGNIQIWDTAAYFSEIDKTPKPSKEMQKRFKLDSSYNYLK |  |  | required calcium for activity | only negligible effects | less than 20% | Neither enzyme was active | active over a broader range, especially above pH 7.0 | higher activity in acetate buffer

— US8846363B2, “Compositions of and methods of using sulfatases from Flavobacterium heparinum” (priority 2007, dated 2014)
